For assay [1], the target named is T1, Human plasma fibronectin (Fn) (human, UniProt P02751-9 32-2240, limits assumed).
T1 construct: It is treated as the same molecule; also called full-length Fn
Nature of the assay: ELISA, Fn on peptide-coated wells. (In an ELISA, binding on a coated surface is turned into a signal by an enzyme label.)

Assay [2] addresses T1, Human plasma fibronectin (Fn). Nature of the assay: ELISAs with GST domain fusions and Fn.
Assay [3] addresses T2, Fn gelatin-binding domain (GBD), 40 kDa fragment (human, UniProt P02751 291-630).
T2 construct: also called Fn-GBD
Nature of the assay: ELISA on GBD-coated wells, anti-GST detection.

The target in assay [4] is T3, Fn N-terminal domain (NTD), 30 kDa fragment (human, UniProt P02751 32-290).
T3 construct: domain: N-terminal domain (NTD), FN1 1-5; also called 30 kDa NTD; 30-kDa proteolytic fragment from human Fn
Nature of the assay: ELISA on NTD-coated wells, anti-GST detection.

Assay [5] addresses T2, Fn gelatin-binding domain (GBD), 40 kDa …. As to the kind of experiment: ELISA, GST fusion on GBD-coated wells (FIG. 22).
Another assay deals with T4, Ovalbumin (UniProt P01012 2-386).
T4 construct: also called ovalbumin (negative control)
T4 sequence: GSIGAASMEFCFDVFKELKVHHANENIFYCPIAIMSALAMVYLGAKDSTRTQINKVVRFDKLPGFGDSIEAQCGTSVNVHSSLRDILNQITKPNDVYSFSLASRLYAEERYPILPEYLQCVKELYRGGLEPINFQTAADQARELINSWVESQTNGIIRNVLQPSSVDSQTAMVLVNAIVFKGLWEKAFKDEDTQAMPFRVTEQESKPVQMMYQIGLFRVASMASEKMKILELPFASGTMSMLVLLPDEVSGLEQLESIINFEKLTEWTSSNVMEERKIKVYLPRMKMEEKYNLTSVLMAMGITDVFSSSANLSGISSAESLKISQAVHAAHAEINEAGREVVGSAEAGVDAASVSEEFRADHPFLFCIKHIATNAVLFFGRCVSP
Nature of the assay: ELISA on ovalbumin-coated wells, anti-GST detection.

Assay [6] has as its target Bovine serum albumin (BSA) (bovine, UniProt P02769 25-607). Nature of the assay: ELISA on BSA-coated wells, anti-GST detection.

T1 sequence (P02751 other isoform, or with tags, fused parts or gaps limits assumed): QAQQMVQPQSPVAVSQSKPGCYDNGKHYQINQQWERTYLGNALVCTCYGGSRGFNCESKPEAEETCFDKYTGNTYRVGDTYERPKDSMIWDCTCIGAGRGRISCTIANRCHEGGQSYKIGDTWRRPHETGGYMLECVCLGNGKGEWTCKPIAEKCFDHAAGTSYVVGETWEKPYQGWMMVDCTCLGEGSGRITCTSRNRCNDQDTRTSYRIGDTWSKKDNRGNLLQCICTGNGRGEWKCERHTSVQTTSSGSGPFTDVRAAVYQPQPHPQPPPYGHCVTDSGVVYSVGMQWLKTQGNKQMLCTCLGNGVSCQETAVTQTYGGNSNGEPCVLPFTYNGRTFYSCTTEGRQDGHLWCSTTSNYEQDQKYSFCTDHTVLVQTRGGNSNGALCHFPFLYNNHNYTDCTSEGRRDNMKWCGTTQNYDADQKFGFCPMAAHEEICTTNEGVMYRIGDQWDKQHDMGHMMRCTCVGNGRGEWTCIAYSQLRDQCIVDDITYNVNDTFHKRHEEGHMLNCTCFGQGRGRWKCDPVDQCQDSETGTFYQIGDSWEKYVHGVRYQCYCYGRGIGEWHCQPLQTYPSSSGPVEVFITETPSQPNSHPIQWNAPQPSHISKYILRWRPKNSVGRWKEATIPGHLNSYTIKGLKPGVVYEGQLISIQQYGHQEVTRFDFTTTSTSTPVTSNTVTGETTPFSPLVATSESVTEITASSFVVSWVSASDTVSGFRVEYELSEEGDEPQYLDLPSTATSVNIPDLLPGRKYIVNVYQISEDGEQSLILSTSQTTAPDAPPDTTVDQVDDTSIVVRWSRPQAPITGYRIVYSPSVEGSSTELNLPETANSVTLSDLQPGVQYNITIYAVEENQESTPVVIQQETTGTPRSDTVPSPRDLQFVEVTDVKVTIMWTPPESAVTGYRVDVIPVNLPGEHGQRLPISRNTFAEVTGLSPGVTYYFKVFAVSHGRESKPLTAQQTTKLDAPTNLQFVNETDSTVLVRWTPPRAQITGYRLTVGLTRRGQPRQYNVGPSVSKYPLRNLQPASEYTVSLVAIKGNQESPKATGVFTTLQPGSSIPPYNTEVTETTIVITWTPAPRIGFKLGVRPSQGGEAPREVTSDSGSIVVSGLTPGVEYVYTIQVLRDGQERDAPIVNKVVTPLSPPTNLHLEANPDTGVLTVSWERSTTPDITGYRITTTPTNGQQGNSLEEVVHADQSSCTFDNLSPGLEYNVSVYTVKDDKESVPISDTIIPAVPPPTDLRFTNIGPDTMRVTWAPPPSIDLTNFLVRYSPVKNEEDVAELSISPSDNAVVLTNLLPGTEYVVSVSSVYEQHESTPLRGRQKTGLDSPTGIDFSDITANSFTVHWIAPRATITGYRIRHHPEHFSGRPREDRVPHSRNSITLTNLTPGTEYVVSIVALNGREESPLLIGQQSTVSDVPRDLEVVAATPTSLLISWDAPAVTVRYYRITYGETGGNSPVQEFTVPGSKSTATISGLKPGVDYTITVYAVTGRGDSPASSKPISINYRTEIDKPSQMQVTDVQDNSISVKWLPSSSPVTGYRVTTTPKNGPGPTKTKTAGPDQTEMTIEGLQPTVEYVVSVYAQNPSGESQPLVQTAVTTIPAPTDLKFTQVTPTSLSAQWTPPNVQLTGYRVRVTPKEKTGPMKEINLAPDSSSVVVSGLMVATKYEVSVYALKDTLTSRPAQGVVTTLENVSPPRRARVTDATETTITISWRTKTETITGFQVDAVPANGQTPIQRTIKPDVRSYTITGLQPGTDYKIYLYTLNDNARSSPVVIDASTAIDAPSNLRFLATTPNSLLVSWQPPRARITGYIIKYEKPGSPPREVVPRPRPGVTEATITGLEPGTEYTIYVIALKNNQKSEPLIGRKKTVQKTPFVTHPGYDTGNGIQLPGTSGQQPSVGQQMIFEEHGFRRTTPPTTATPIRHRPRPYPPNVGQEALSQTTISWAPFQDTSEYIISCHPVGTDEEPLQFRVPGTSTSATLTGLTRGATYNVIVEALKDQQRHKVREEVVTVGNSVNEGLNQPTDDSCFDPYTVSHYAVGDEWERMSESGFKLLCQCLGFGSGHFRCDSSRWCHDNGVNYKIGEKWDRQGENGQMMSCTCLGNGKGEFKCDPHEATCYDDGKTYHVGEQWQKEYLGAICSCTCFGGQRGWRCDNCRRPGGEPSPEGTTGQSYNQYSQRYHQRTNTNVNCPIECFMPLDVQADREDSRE
T2 sequence (P02751 291-630 limits assumed): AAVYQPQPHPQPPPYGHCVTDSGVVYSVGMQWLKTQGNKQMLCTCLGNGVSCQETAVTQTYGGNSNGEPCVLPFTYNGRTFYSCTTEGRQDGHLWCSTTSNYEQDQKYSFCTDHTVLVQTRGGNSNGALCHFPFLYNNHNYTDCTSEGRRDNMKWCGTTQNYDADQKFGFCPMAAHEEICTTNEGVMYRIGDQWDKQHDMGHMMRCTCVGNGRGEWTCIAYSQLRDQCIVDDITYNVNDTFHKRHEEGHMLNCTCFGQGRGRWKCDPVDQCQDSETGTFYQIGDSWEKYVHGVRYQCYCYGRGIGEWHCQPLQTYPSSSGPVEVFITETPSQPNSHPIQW
T3 sequence (P02751 32-290 limits assumed): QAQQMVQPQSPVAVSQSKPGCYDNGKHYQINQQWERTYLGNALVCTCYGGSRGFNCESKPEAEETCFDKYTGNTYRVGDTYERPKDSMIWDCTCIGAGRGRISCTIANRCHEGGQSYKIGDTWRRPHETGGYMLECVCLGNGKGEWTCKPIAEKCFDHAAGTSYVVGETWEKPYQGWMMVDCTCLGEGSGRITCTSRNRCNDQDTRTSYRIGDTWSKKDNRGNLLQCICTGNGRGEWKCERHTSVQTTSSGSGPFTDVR
Bovine serum albumin (BSA), sequence (P02769 25-607 limits assumed): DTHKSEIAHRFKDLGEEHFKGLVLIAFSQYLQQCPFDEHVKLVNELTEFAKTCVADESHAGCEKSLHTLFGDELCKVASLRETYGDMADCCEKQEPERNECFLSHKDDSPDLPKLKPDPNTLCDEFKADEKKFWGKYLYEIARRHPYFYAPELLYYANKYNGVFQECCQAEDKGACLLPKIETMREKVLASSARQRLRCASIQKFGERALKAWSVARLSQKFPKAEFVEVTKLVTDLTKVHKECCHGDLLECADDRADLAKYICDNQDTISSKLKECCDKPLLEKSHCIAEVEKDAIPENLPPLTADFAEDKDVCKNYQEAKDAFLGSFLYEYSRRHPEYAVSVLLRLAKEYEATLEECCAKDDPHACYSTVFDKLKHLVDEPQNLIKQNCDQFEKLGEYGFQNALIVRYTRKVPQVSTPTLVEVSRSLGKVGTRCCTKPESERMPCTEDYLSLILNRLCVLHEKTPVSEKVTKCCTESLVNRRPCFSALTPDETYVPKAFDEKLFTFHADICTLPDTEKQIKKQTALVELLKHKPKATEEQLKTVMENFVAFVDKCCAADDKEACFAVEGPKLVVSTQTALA

B1: FlpA peptide P5 (D195-V224) (peptide)
peptide: DSDLKPNENSSYRIIAVSFNGIKSGSSQVV
notes: Synthetic 30mer of FlpA-D2; Used as a negative control in later ELISAs
As to B1, the binding result in assay [1] is “no binding”.

B2: FlpA-D1-GST (aa35-132) (other)
chain: PAVNESLPKVESLKSLSDMSNIAFEWEPLYNENIKGFYLYRSSDENPDFKLVGTIKDKFQTHYVDTKLEPGTKYRYMMKSFNEQGQISEDGKVIEVST
notes: not shown: glutathione S-transferase (GST) tag of vector pGEX-5x-1, N-terminal
Regarding B2, the binding result in assay [2] is “no binding”; in assay [3], “no binding (tested: up to 1000 nM)”.

FVQAVTNLPNRIKLIWR (Synthetic peptide) [FlpA peptide P7 (F141-R157)]: the binding result in assay [1] is on record as “no binding”.

B3: FlpA-D3-GST (aa232-410) (other)
chain: PPQVEHLSASTDGSSKIILTWDAPTYEDFSYYKVYSTSSSFLPFSVLAKTDKNSYEDIVEGAGKSKYYKVTMVDKDGLESPMPKDGVEGKTLGNPLAPSIILAQSTSEGINLEWSDNDTRAVEYEVRRYGGEQNAVFKGIKEKRLKDVKALPGVEYSYEVIAIDSAGLRSEPSSKVKAA
notes: as for B2
With B3, the binding result in assay [2] is “no binding”; in assay [3] it was “no binding (tested: up to 1000 nM)”.

B4: CadF peptide FRLS- (aa118-133) (peptide)
peptide: YDNKSGGFGHYGAGVK
notes: Synthetic negative control peptide; also called CadF FRLS^-
B4: in assay [1], the binding result is on record as “no binding”.

B5: FlpA-D2-GST (aa135-226) (other)
chain: RLEAVPFVQAVTNLPNRIKLIWRPHPDFRVDSYIIERTKGDDKEFKKIAEVKNRLNAEYIDSDLKPNENSSYRIIAVSFNGIKSGSSQVVSS
notes: also called FlpA domain 2; not shown: glutathione S-transferase (GST) tag of vector pGEX-5x-1, N-terminal
Turning to B5, the binding result is given as “no binding (tested: up to 1000 nM)” in assay [4], “binds” in assay [5] and “no binding (tested: up to 1000 nM)” in the assay with Ovalbumin.

B6: FlpA-GST (aa35-410) (other)
chain: PAVNESLPKVESLKSLSDMSNIAFEWEPLYNENIKGFYLYRSSDENPDFKLVGTIKDKFQTHYVDTKLEPGTKYRYMMKSFNEQGQISEDGKVIEVSTAPRLEAVPFVQAVTNLPNRIKLIWRPHPDFRVDSYIIERTKGDDKEFKKIAEVKNRLNAEYIDSDLKPNENSSYRIIAVSFNGIKSGSSQVVSSTSKALPPQVEHLSASTDGSSKIILTWDAPTYEDFSYYKVYSTSSSFLPFSVLAKTDKNSYEDIVEGAGKSKYYKVTMVDKDGLESPMPKDGVEGKTLGNPLAPSIILAQSTSEGINLEWSDNDTRAVEYEVRRYGGEQNAVFKGIKEKRLKDVKALPGVEYSYEVIAIDSAGLRSEPSSKVKAA
notes: also called full-length FlpA-GST; FlpA full-length; not shown: glutathione S-transferase (GST) tag of vector pGEX-5x-1, N-terminal
As for B6, the binding result is “no binding (tested: up to 1000 nM)” in assay [4], “no binding” in assay [6] and “no binding (tested: up to 1000 nM)” in the assay with Ovalbumin.

As for KKIAEVKNRLNAEYIDSDLKPNENSSYRII (Synthetic 30mer of FlpA-D2) [FlpA peptide P4 (K180-I209)], in assay [1], the binding result is “no binding”.

DSYIIERTKGDDKEFKKIAEVKNRLNAEYI (Synthetic 30mer of FlpA-D2) [FlpA peptide P3 (D165-I194)]: in assay [1], the binding result is given as “no binding (tested: Fn up to 20 µg/ml)”.

These data come from patent US20120183570A1 (WASHINGTON STATE UNIVERSITY, published 2012).
